Assay results reported in publication PMC9482650, “Quantitative fragmentomics allow affinity mapping of interactomes” (Nature Communications, 2022).

Legend:
Experiment in all cases: holdup assay
Parameters in all cases: key: below the threshold = too weak to quantify, mostly under pKd 3.1 to 4
DVL3, Q92997 = molecular target: T1, DVL3, Q92997
T1 sequence (Q92997 244-331, limits assumed, looked up): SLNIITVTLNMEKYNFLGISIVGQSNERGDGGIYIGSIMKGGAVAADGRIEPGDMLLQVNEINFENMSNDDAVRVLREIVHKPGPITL

GRIP2_4, Q9C0E4 = molecular target: GRIP2_4, Q9C0E4
GRIP2_4, Q9C0E4, sequence (Q9C0E4 446-548): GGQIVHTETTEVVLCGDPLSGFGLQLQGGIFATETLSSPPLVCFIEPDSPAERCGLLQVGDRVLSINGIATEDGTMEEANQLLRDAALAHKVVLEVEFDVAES

APBA1_2, Q02410 = molecular target: T2, APBA1_2, Q02410
T2 sequence (Q02410 742-832, limits assumed, looked up): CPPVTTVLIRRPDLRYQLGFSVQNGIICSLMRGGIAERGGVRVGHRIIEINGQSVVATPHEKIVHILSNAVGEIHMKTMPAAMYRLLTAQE

LNX1_1, Q8TBB1 = molecular target: LNX1_1, Q8TBB1
LNX1_1, Q8TBB1, sequence (Q8TBB1 261-371): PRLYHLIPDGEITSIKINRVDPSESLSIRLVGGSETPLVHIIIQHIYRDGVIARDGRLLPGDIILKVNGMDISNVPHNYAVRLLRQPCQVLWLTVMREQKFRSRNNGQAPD

SNTG2, Q9NY99 = molecular target: T3, SNTG2, Q9NY99
T3 sequence (Q9NY99 68-166, limits assumed, looked up): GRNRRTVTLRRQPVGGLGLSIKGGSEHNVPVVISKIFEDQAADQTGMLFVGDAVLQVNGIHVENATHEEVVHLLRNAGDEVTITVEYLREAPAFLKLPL

PARD3_3, Q8TEW0 = molecular target: PARD3_3, Q8TEW0
PARD3_3, Q8TEW0, sequence (Q8TEW0 582-685): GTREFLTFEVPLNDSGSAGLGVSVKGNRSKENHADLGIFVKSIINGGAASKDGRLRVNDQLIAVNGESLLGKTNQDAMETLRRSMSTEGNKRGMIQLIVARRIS

Inadl_4, Q8NI35 = molecular target: Inadl_4, Q8NI35
Inadl_4, Q8NI35, sequence (Q8NI35 547-651): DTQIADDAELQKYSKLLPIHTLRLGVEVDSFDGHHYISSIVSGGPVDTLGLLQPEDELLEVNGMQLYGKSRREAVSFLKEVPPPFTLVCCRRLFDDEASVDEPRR

TX1BP3, O14907 = molecular target: T4, TX1BP3, O14907
T4 sequence (O14907 10-122, limits assumed, looked up): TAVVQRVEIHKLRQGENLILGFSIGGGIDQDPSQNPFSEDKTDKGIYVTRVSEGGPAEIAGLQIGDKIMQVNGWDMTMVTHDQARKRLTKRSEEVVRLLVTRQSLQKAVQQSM

PDZRN3_1, Q9UPQ7 = molecular target: T5, PDZRN3_1, Q9UPQ7
T5 sequence (Q9UPQ7 244-349, limits assumed, looked up): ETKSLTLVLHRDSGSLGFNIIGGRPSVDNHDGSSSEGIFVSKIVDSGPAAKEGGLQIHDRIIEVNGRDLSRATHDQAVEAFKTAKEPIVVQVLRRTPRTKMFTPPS

GRIP2_5, Q9C0E4 = molecular target: GRIP2_5, Q9C0E4
GRIP2_5, Q9C0E4, sequence (Q9C0E4 544-642): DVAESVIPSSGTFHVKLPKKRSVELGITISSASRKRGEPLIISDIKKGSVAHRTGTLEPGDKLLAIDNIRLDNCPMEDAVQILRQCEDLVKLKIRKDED

LIN7B, Q9HAP6 = molecular target: T6, LIN7B, Q9HAP6
T6 sequence (Q9HAP6 88-185, limits assumed, looked up): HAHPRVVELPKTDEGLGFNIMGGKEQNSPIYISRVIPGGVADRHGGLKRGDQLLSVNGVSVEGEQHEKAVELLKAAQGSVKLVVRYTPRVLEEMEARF

PARD3B_1, Q8TEW8 = molecular target: T7, PARD3B_1, Q8TEW8
T7 sequence (Q8TEW8 196-299, limits assumed, looked up): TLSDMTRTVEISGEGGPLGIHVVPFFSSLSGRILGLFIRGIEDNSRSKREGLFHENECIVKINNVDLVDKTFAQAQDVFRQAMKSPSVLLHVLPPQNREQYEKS

GRIP1_5, Q9Y3R0 = molecular target: T8, GRIP1_5, Q9Y3R0
T8 sequence (Q9Y3R0 568-668, limits assumed, looked up): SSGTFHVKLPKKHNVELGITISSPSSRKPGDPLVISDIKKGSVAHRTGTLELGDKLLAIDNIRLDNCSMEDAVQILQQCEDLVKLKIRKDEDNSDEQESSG

SCRIB_2, Q14160 = molecular target: SCRIB_2, Q14160
SCRIB_2, Q14160, sequence (Q14160 857-960): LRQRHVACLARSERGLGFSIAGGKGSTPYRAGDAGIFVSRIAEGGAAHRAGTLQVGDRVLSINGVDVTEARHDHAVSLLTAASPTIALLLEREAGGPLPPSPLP

PDZD7_3, Q9H5P4 = molecular target: T9, PDZD7_3, Q9H5P4
T9 sequence (Q9H5P4 857-944, limits assumed, looked up): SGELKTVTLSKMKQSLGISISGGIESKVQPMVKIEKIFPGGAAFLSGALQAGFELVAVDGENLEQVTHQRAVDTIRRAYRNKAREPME

LNX1_3, Q8TBB1 = molecular target: LNX1_3, Q8TBB1
LNX1_3, Q8TBB1, sequence (Q8TBB1 500-596): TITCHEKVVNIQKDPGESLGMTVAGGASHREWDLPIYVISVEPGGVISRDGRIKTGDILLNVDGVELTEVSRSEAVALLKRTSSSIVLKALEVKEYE

ARHGEF11, O15085 = molecular target: T10, ARHGEF11, O15085
T10 sequence (O15085 42-136, limits assumed, looked up): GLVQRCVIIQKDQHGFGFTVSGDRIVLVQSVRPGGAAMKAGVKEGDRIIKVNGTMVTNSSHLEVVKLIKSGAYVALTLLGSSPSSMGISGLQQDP

GRASP, Q7Z6J2 = molecular target: GRASP, Q7Z6J2
GRASP, Q7Z6J2, sequence (Q7Z6J2 96-193): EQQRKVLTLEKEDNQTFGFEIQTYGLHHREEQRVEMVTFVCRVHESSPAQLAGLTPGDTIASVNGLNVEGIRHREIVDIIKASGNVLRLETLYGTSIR

RAPGEF6, Q8TEU7 = molecular target: T11, RAPGEF6, Q8TEU7
T11 sequence (Q8TEU7 525-625, limits assumed, looked up): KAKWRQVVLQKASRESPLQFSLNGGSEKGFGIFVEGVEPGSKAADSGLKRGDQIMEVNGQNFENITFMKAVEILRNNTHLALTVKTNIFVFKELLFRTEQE

GRIP1_3, Q9Y3R0 = molecular target: T12, GRIP1_3, Q9Y3R0
T12 sequence (Q9Y3R0 247-346, limits assumed, looked up): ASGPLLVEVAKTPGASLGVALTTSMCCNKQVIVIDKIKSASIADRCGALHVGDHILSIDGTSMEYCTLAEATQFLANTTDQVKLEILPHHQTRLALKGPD

FRMPD3, Q5JV73 = molecular target: FRMPD3, Q5JV73
FRMPD3, Q5JV73, sequence (Q5JV73 12-100): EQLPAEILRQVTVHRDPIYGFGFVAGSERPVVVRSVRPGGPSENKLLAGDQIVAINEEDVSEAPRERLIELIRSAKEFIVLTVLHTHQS

DLG3_2, Q92796 = molecular target: T13, DLG3_2, Q92796
T13 sequence (Q92796 221-321, limits assumed, looked up): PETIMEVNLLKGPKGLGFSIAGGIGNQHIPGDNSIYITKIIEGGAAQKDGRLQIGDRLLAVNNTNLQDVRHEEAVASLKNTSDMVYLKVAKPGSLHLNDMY

APBA1_1, Q02410 = molecular target: T14, APBA1_1, Q02410
T14 sequence (Q02410 651-752, limits assumed, looked up): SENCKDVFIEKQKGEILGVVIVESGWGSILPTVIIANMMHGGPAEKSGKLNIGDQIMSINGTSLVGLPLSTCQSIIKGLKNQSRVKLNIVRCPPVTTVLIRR

[1] = plain residues with an end cap or a label only (N-terminal biotin on a linker: ahx)
[2] = plain residues with an end cap or a label only (N-terminal biotin on a linker: ttds)

Binder: AKPQPVDSWV [ARVCF, O00192]
- pKd (DVL3, Q92997; [1]): 3.96
- pKd (GRIP2_4, Q9C0E4; [1]): below the threshold
- pKd (APBA1_2, Q02410; [1]): 4.62
- pKd (LNX1_1, Q8TBB1; [1]): below the threshold
- pKd (SNTG2, Q9NY99; [1]): below the threshold
- pKd (PARD3_3, Q8TEW0; [1]): 4.05
- pKd (Inadl_4, Q8NI35; [1]): below the threshold
- pKd (TX1BP3, O14907; [1]): 4.92
- pKd (PDZRN3_1, Q9UPQ7; [1]): below the threshold
- pKd (GRIP2_5, Q9C0E4; [1]): below the threshold
- pKd (LIN7B, Q9HAP6; [1]): below the threshold
- pKd (PARD3B_1, Q8TEW8; [1]): below the threshold
- pKd (GRIP1_5, Q9Y3R0; [1]): below the threshold
- pKd (SCRIB_2, Q14160; [1]): 5.16
- pKd (PDZD7_3, Q9H5P4; [1]): 3.53
- pKd (LNX1_3, Q8TBB1; [1]): below the threshold
- pKd (ARHGEF11, O15085; [1]): below the threshold
- pKd (GRASP, Q7Z6J2; [1]): below the threshold
- pKd (RAPGEF6, Q8TEU7; [1]): below the threshold
- pKd (GRIP1_3, Q9Y3R0; [1]): below the threshold
- pKd (FRMPD3, Q5JV73; [1]): below the threshold
- pKd (DLG3_2, Q92796; [1]): 4.49
- pKd (APBA1_1, Q02410; [1]): below the threshold

Binder: GRLLGLETNV [ARHGEF26, Q96DR7]
- pKd (DVL3, Q92997; [2]): below the threshold
- pKd (GRIP2_4, Q9C0E4; [2]): below the threshold
- pKd (APBA1_2, Q02410; [2]): 4.23
- pKd (LNX1_1, Q8TBB1; [2]): 3.81
- pKd (SNTG2, Q9NY99; [2]): 4.55
- pKd (PARD3_3, Q8TEW0; [2]): below the threshold
- pKd (Inadl_4, Q8NI35; [2]): below the threshold
- pKd (TX1BP3, O14907; [2]): 4.49
- pKd (PDZRN3_1, Q9UPQ7; [2]): 3.59
- pKd (GRIP2_5, Q9C0E4; [2]): below the threshold
- pKd (LIN7B, Q9HAP6; [2]): below the threshold
- pKd (PARD3B_1, Q8TEW8; [2]): below the threshold
- pKd (GRIP1_5, Q9Y3R0; [2]): below the threshold
- pKd (SCRIB_2, Q14160; [2]): 4.29
- pKd (PDZD7_3, Q9H5P4; [2]): 4.11
- pKd (LNX1_3, Q8TBB1; [2]): below the threshold
- pKd (ARHGEF11, O15085; [2]): below the threshold
- pKd (GRASP, Q7Z6J2; [2]): below the threshold
- pKd (RAPGEF6, Q8TEU7; [2]): below the threshold
- pKd (GRIP1_3, Q9Y3R0; [2]): below the threshold
- pKd (FRMPD3, Q5JV73; [2]): below the threshold
- pKd (DLG3_2, Q92796; [2]): 4.97
- pKd (APBA1_1, Q02410; [2]): below the threshold

Binder: NPDALPETLV [ARHGAP6, O43182]
- pKd (DVL3, Q92997; [2]): below the threshold
- pKd (GRIP2_4, Q9C0E4; [2]): below the threshold
- pKd (APBA1_2, Q02410; [2]): below the threshold
- pKd (LNX1_1, Q8TBB1; [2]): 3.83
- pKd (SNTG2, Q9NY99; [2]): 4.95
- pKd (PARD3_3, Q8TEW0; [2]): 3.85
- pKd (Inadl_4, Q8NI35; [2]): below the threshold
- pKd (TX1BP3, O14907; [2]): below the threshold
- pKd (PDZRN3_1, Q9UPQ7; [2]): 4.3
- pKd (GRIP2_5, Q9C0E4; [2]): below the threshold
- pKd (LIN7B, Q9HAP6; [2]): 3.77
- pKd (PARD3B_1, Q8TEW8; [2]): below the threshold
- pKd (GRIP1_5, Q9Y3R0; [2]): below the threshold
- pKd (SCRIB_2, Q14160; [2]): 3.8
- pKd (PDZD7_3, Q9H5P4; [2]): 5.61
- pKd (LNX1_3, Q8TBB1; [2]): below the threshold
- pKd (ARHGEF11, O15085; [2]): 4.09
- pKd (GRASP, Q7Z6J2; [2]): below the threshold
- pKd (RAPGEF6, Q8TEU7; [2]): below the threshold
- pKd (GRIP1_3, Q9Y3R0; [2]): below the threshold
- pKd (FRMPD3, Q5JV73; [2]): below the threshold
- pKd (DLG3_2, Q92796; [2]): 4.18
- pKd (APBA1_1, Q02410; [2]): below the threshold

Binder: QRPYRRESEI [KCNJ12, Q14500]
- pKd (DVL3, Q92997; [2]): below the threshold
- pKd (GRIP2_4, Q9C0E4; [2]): below the threshold
- pKd (APBA1_2, Q02410; [2]): below the threshold
- pKd (LNX1_1, Q8TBB1; [2]): below the threshold
- pKd (SNTG2, Q9NY99; [2]): 3.63
- pKd (PARD3_3, Q8TEW0; [2]): below the threshold
- pKd (Inadl_4, Q8NI35; [2]): below the threshold
- pKd (TX1BP3, O14907; [2]): 4.64
- pKd (PDZRN3_1, Q9UPQ7; [2]): 4.68
- pKd (GRIP2_5, Q9C0E4; [2]): below the threshold
- pKd (LIN7B, Q9HAP6; [2]): below the threshold
- pKd (PARD3B_1, Q8TEW8; [2]): below the threshold
- pKd (GRIP1_5, Q9Y3R0; [2]): below the threshold
- pKd (SCRIB_2, Q14160; [2]): 3.56
- pKd (PDZD7_3, Q9H5P4; [2]): 4.57
- pKd (LNX1_3, Q8TBB1; [2]): below the threshold
- pKd (ARHGEF11, O15085; [2]): below the threshold
- pKd (GRASP, Q7Z6J2; [2]): below the threshold
- pKd (RAPGEF6, Q8TEU7; [2]): below the threshold
- pKd (GRIP1_3, Q9Y3R0; [2]): 3.51
- pKd (FRMPD3, Q5JV73; [2]): below the threshold
- pKd (DLG3_2, Q92796; [2]): 4.28
- pKd (APBA1_1, Q02410; [2]): below the threshold
